The target in assay [1] is CD59 in membrane extract of lysed CD59-expressing red blood cells (UniProt P13987). The experiment in a line: phage ELISA, membrane extract of CD59(+) red cells coated, anti-M13-HRP; helper phage control.
Assay [2] has as its target CD59 (target protein) (human) (UniProt P13987). The experiment in a line: phage ELISA, CD59 coated directly, anti-M13-HRP; helper phage control.

This is an account of results in US20120269801A1.

In the case of M13KO7 helper phage, the OD490 (Ag+ phage+, CD59(+)red cell) in assay [1] is 0.046 OD. In assay [2], the OD490 (Ag+ phage+) amounted to 0.046 OD.
